For 5 molecules, Kd, koff and kon results are on record in patent US20240409647A1 (SINOMAB BIOSCIENCE, published 2024).

One test has as its target T1, human TSLP (R&D systems) (human, UniProt Q969D9 29-159).
T1 construct: also called thymic stromal lymphopoietin
The test is described as follows: BLI (Octet RED96), binder captured via anti-human Fab CH1, TSLP in solution. (In general: Biolayer interferometry detects binding as a change in optical thickness at a sensor tip.)

Test [1] has as its target T2, human IL-33 (R&D systems) (human, UniProt O95760 112-270).
T2 sequence (looked up): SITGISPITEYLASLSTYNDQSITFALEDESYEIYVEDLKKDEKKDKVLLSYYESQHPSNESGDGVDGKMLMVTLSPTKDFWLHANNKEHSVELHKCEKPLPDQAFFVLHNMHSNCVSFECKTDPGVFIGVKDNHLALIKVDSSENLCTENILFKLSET
The experiment in a line: BLI (Octet RED96), binder captured via anti-human Fab CH1, IL33 in solution.
Experimental: (§1) Biosensors immobilized with irrelevant antibody (SM03, anti-human CD22 chimeric IgG1 antibody, SinoMab BioScience Limited, 20 μg/mL) were used as control reference.

By Kd is commonly meant the constant that tells how readily two partners part at equilibrium. Low values mean tighter binding, high ones weaker binding. One may read the koff as a measure of how fast the partners let go of each other. A higher koff goes with fast dissociation. The kon is the rate constant with which the complex forms. A low value points to slow association.

Experimental for human TSLP (R&D systems): as §1

B1: SM17-anti TSLP 1# bsBp (bispecific antibody, human IgG4 S228P, kappa)
heavy: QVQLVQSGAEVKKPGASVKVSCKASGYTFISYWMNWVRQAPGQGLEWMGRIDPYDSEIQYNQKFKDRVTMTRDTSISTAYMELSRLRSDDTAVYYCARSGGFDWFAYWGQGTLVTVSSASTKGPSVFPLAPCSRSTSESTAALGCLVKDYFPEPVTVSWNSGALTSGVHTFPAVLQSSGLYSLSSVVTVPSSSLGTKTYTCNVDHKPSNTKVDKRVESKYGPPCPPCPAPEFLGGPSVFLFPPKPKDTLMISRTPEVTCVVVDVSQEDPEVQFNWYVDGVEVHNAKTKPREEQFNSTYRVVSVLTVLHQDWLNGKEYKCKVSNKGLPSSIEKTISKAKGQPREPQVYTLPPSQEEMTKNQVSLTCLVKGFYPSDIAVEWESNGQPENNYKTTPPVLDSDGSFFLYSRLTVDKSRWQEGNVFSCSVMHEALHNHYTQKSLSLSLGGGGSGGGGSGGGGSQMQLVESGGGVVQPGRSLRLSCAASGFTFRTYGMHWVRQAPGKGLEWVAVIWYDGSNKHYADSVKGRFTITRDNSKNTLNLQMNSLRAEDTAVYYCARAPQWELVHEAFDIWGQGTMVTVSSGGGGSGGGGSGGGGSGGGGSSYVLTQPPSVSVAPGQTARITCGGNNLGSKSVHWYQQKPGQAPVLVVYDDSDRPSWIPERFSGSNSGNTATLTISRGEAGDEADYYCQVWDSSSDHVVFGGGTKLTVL
light: DIQMTQSPSSLSASVGDRVTITCRASENINSNLAWYQQKPGKAPKLLLYDVTNLADGVPSRFSGSGSGTDYTLTISSLQPEDFATYYCQHFWGPPYTFGGGTKVEIKRTVAAPSVFIFPPSDEQLKSGTASVVCLLNNFYPREAKVQWKVDNALQSGNSQESVTEQDSKDSTYSLSSTLTLSKADYEKHKVYACEVTHQGLSSPVTKSFNRGEC
notes: SM17 IgG with an anti-TSLP scFv fused to the C-terminus of each heavy chain; expressed in ExpiCHO-S cells
For B1, in the test with human TSLP (R&D systems), binding was characterised by a dissociation constant (Kd) of 0.511 nM, the koff is 0.000241 s⁻¹ and the kon is 472000 M⁻¹ s⁻¹.

B2: SM17-anti IL-33 3# bsBp (bispecific antibody, human IgG4 S228P, kappa)
heavy: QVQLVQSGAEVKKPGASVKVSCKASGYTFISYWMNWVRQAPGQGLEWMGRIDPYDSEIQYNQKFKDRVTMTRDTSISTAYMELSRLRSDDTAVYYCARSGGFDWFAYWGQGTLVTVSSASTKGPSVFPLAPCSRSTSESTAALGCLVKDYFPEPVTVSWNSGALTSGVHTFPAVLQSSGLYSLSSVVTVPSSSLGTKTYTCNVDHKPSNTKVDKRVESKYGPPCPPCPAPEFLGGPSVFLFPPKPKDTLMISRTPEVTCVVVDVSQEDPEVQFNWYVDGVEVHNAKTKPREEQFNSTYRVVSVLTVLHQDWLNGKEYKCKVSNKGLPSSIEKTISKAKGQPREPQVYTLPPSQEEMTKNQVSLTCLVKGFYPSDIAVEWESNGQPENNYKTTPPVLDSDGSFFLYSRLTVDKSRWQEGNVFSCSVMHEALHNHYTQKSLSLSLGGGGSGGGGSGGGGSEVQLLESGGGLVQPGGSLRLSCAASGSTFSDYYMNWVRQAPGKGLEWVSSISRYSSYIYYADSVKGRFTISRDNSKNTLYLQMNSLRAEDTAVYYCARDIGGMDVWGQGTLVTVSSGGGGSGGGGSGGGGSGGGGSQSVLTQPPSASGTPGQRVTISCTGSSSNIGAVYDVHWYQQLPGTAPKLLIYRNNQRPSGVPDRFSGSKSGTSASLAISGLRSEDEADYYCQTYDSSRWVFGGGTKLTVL
light: DIQMTQSPSSLSASVGDRVTITCRASENINSNLAWYQQKPGKAPKLLLYDVTNLADGVPSRFSGSGSGTDYTLTISSLQPEDFATYYCQHFWGPPYTFGGGTKVEIKRTVAAPSVFIFPPSDEQLKSGTASVVCLLNNFYPREAKVQWKVDNALQSGNSQESVTEQDSKDSTYSLSSTLTLSKADYEKHKVYACEVTHQGLSSPVTKSFNRGEC
notes: SM17 IgG with an anti-IL-33 scFv fused to the C-terminus of each heavy chain
On to B2, for which, in test [1], the dissociation constant (Kd) was no more than 0.0425 nM, the koff was less than 1e-07 s⁻¹ and the kon is 22700 M⁻¹ s⁻¹.

B3: SM17-anti IL-33 2# bsBp (bispecific antibody, human IgG4 S228P, kappa)
heavy: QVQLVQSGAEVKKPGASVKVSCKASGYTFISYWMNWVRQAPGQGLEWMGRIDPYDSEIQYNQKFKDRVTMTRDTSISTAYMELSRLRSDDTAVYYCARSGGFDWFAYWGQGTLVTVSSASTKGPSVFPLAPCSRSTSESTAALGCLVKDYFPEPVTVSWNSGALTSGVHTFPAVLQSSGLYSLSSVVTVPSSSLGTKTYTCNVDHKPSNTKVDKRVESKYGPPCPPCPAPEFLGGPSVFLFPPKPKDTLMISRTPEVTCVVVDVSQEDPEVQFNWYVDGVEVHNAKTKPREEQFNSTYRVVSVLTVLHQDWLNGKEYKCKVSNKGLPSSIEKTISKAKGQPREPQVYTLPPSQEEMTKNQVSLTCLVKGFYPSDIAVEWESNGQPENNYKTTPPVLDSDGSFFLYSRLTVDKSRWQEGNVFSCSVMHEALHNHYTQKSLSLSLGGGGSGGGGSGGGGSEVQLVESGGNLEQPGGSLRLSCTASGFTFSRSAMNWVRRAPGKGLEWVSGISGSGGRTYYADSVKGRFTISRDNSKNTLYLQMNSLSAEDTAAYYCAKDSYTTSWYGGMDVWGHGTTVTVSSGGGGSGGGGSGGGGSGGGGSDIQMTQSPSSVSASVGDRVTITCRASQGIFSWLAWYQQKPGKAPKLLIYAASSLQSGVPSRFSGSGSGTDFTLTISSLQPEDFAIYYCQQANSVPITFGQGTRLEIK
light: DIQMTQSPSSLSASVGDRVTITCRASENINSNLAWYQQKPGKAPKLLLYDVTNLADGVPSRFSGSGSGTDYTLTISSLQPEDFATYYCQHFWGPPYTFGGGTKVEIKRTVAAPSVFIFPPSDEQLKSGTASVVCLLNNFYPREAKVQWKVDNALQSGNSQESVTEQDSKDSTYSLSSTLTLSKADYEKHKVYACEVTHQGLSSPVTKSFNRGEC
notes: as for B2
In the case of B3, in test [1], the Kd was less than 0.0259 nM, the koff is less than 1e-07 s⁻¹ and the kon is 37300 M⁻¹ s⁻¹.

B4: SM17-anti IL-33 1# bsBp (bispecific antibody, human IgG4 S228P, kappa)
heavy: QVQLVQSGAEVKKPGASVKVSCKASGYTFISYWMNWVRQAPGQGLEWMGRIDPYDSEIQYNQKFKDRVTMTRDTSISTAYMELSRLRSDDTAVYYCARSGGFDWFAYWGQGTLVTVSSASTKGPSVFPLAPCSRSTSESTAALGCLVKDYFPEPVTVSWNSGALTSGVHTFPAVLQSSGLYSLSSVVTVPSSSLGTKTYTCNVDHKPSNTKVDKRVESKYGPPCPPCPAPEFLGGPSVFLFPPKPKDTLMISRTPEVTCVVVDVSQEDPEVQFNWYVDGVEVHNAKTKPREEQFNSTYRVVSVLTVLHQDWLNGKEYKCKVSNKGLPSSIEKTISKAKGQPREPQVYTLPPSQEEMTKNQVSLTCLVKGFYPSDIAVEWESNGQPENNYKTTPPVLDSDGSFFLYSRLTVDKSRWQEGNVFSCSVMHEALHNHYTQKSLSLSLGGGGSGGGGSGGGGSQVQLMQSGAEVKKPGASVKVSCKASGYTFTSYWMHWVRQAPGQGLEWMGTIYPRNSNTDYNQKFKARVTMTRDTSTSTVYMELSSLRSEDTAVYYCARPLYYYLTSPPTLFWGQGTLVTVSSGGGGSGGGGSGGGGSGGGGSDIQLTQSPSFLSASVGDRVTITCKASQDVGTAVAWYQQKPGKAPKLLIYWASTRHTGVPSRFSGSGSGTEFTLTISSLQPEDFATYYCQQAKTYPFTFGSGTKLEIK
light: DIQMTQSPSSLSASVGDRVTITCRASENINSNLAWYQQKPGKAPKLLLYDVTNLADGVPSRFSGSGSGTDYTLTISSLQPEDFATYYCQHFWGPPYTFGGGTKVEIKRTVAAPSVFIFPPSDEQLKSGTASVVCLLNNFYPREAKVQWKVDNALQSGNSQESVTEQDSKDSTYSLSSTLTLSKADYEKHKVYACEVTHQGLSSPVTKSFNRGEC
notes: as for B2
In test [1], B4 displayed a Kd of 28.9 nM, a koff of 0.000283 s⁻¹ and a kon of 9810 M⁻¹ s⁻¹.

B5: SM17-anti TSLP 2# bsBp (bispecific antibody, human IgG4 S228P, kappa)
heavy: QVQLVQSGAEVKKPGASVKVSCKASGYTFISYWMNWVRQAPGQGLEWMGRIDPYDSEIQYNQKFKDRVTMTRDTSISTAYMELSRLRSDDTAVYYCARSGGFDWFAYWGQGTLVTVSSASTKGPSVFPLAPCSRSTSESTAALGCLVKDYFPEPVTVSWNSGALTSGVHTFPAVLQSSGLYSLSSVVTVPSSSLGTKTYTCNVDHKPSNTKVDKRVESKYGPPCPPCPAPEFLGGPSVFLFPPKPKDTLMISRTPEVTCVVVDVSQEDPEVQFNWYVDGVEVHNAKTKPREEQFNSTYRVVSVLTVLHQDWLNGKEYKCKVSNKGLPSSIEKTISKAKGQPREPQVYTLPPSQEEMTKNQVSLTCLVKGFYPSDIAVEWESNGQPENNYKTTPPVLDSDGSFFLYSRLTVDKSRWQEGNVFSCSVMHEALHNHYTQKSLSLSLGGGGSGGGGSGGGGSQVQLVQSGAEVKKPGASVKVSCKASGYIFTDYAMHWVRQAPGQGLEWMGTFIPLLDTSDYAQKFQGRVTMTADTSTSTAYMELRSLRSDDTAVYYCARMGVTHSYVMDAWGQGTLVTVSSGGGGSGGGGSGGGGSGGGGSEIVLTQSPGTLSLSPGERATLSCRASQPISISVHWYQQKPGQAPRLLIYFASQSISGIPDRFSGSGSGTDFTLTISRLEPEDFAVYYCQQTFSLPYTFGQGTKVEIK
light: DIQMTQSPSSLSASVGDRVTITCRASENINSNLAWYQQKPGKAPKLLLYDVTNLADGVPSRFSGSGSGTDYTLTISSLQPEDFATYYCQHFWGPPYTFGGGTKVEIKRTVAAPSVFIFPPSDEQLKSGTASVVCLLNNFYPREAKVQWKVDNALQSGNSQESVTEQDSKDSTYSLSSTLTLSKADYEKHKVYACEVTHQGLSSPVTKSFNRGEC
notes: SM17 IgG with an anti-TSLP scFv fused to the C-terminus of each heavy chain; also called SM17-anti-TSLP bsBp 2 #
Take B5: in the test with human TSLP (R&D systems), the Kd was less than 0.001 nM, the off-rate (koff) was less than 1e-07 s⁻¹ and the kon came out at 374000 M⁻¹ s⁻¹.
